In IntAct's records for PubMed 23957209:

B1: NADPH oxidase organizer 1 (Homo sapiens), Q8NFA2-3 (parent)
chain: MAGPRYPVSVQGAALVQIKRLQTFAFSVRWSDGSDTFVRRSWDEFRQLKKTLKETFPVEAGLLRRSDRVLPKLLDAPLLGRVGRTSRGLARLQLLETYSRRLLATAERVARSPTITGFFAPQPLDLEPALPPGSRVILPTPEEQPLSRAAGRLSIHSLEAQSLRCLQPFCTQDTRDRPFQAQAQESLDVLLRHPSGWWLVENEDRQTAWFPAPYLEEAAPGQGREGGPSLGSSGPQFCASRAYESSRADELSVPAGARVRVLETSDRGWWLCRYGDRAGLLPAVLLRPEGLGALLSGTGFRGGDDPAGEARGFPEPSQATAPPPTVPTRPSPGAIQSRCCTVTRRALERRPRRQGRPRGCVDSVPHPTTEQ
partner: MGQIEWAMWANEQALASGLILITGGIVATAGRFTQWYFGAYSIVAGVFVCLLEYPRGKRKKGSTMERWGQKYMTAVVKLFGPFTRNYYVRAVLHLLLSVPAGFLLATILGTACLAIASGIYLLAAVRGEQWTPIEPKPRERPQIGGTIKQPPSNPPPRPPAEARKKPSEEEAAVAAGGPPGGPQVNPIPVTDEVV
B2: Cytochrome b-245 light chain (Homo sapiens), P13498 (parent)
chain: B1 partner
partner: B1 chain
B3: NADPH oxidase organizer 1 (Homo sapiens), Q8NFA2-3 (parent)
chain: B1 chain
partner: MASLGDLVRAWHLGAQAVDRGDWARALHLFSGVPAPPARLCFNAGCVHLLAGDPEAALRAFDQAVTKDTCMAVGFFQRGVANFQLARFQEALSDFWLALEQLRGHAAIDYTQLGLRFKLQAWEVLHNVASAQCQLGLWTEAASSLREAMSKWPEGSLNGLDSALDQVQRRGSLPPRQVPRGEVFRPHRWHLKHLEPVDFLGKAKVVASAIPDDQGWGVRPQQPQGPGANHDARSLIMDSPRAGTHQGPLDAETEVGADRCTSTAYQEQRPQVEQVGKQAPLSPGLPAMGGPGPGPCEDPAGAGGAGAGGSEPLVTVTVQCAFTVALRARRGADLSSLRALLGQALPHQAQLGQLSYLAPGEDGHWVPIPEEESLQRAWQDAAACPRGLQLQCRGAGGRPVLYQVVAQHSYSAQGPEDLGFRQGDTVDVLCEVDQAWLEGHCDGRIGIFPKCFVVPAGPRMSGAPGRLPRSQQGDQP
B4: NADPH oxidase activator 1 (Homo sapiens), Q86UR1 (parent)
chain: B3 partner
partner: B1 chain
B5: NADPH oxidase organizer 1 (Homo sapiens), Q8NFA2-3 (parent)
chain: B1 chain
partner: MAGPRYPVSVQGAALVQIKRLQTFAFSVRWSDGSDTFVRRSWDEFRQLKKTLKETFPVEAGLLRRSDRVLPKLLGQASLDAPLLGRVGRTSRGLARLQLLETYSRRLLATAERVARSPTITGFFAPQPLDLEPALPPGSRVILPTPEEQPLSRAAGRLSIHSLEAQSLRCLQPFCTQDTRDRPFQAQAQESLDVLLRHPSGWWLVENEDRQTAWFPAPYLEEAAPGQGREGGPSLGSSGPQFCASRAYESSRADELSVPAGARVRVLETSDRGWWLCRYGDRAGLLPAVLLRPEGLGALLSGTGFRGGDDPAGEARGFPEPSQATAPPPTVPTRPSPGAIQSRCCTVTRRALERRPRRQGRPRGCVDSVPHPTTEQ

Variants of: B1
Settings: with cy24a_human CYBA, P13498

effect of a mutation on the interaction | Variant
decreasing interaction | S195A

Variants of: B1
Settings: with cy24a_human CYBA

effect of a mutation on the interaction | Variant
decreasing interaction | S195E

Variants of: B1
Settings: with cy24a_human CYBA
Remark: another data set of the same source

effect of a mutation on the interaction | Variant
decreasing interaction | S195D

Variants of: B2
Settings: with NOXO1, Q8NFA2-3

effect of a mutation on the interaction | Variant
disrupting interaction | P156Q

Variants of: B3
Settings: with noxa1_human NOXA1, Q86UR1

effect of a mutation on the interaction | Variant
disrupting interaction | T341A

Variants of: B3
Settings: with noxa1_human NOXA1, Q86UR1
Remark: another data set of the same source

effect of a mutation on the interaction | Variant
increasing interaction | T341E

Variants of: B3
Settings: with noxa1_human NOXA1, Q86UR1
Remark: another data set of the same source

effect of a mutation on the interaction | Variant
increasing interaction | T341D

Variants of: B3
Settings: with noxa1_human NOXA1, Q86UR1
Remark: another data set of the same source

effect of a mutation on the interaction | Variant
disrupting interaction | T343A

Variants of: B4
Settings: with NOXO1, Q8NFA2-3

effect of a mutation on the interaction | Variant
disrupting interaction | W436R

Variants of: B5
Settings: with noxo1_human NOXO1, Q8NFA2

effect of a mutation on the interaction | Variant
disrupting interaction | W197R
